Measurements from the nanobody polyreactivity screen of Harvey et al. (2022).

Assay: yeast display, Sf9 membrane polyspecificity reagent, FACS + sequencing; frameworks hold sequencing errors
How it was run: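 Galactose induction of a Saccharomyces cerevisiae BJ5465 synthetic nanobody display library ran 36–48 hours. The cells were then stained for 1 hour at 4 °C with 10% biotinylated, detergent-solubilized Sf9 membrane reagent, pulled down on streptavidin microbeads and FACS-sorted into low and high (top ~1%) gates on expression and reagent-binding fluorescence. Labels for polyreactivity follow the gate of origin.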

Row | Sequence | polyreactivity (PSR sort gate)
1 | QVQLVESGGGLVQAGGSLRLSCAASGRIFSNNAMGWYRQAPGKERELVAAISSSGSTYYADSVKGRFTISRDNAKNTVYLQINSLKPEDTAVYYCAVVYGYPYLRGYVFGFNYWGQGTQVTVSS | low polyreactivity
2 | QVQLVESGGGLVQAGGSLRLSCAASGRIFSNNAMGWYRQAPGKERELVAASNRSGDGTYYADSVKGRFTSSRDHAKNTVYLQMNSLKPEDTAVYYCAVRYYWGYTSYGYWGQGTQVTVSS | high polyreactivity
3 | QVQLVESGGGLVQAGGSLRLSCAASGRIFSNNDMGWYRQAAGKERELVAAISKNGGRTYYADSVKGRFTISRDNAKNTVYLQMNSLKPEDTAVYYCAAPVKPVTGYYPYDYWGQGTQVTVSS | high polyreactivity
4 | QVQLVESGGGLVQAGGSLRLSCAASGRIFSPYAMGWYRQAPGKERELVAAITSSGGSTYYADSVKGRFTISRDNAKNTVYLQMNSLKPEDTAVYYCNARRGRYTPSVNYWGQGTQVTVSS | high polyreactivity
5 | QVQLVESGGGLVQAGGSLRLSCAASGRIFSPYVMGWYRQAPGKERELVAAITGSGGSTYYADSVKGRFTISRDNAKKTVYLQMNSLKPEDTAVYYCAVVSRTTAMDYRGQGTQVTVSS | high polyreactivity
6 | QVQLVESGGGLVQAGGSLRLSCAASGRIFSQYAMGWYRQAPGKEREFVASISRSGGRTYYADSVKGRFTISRDNAKNTVYLQMNSLKPEDTAVYYCAARAETRYYTYNYWGQGTQVTVSS | high polyreactivity
7 | QVQLVESGGGLVQAGGSLRLSCAASGRIFSRNAMGSYRQAPGKERELVAAITSGGSTYYADYVKGRFTISSDNAKNTVYLQLNSLKPEDTAVYTVKILRYDYWGQGTQVTVSS | high polyreactivity
8 | QVQLVESGGGLVQAGGSLRLSCAASGRIFSRNAMGWYRQAPGKERELVAAISRSGTSTYYADSVKGRFTISRDNAKNTVYLQMNSLKPEDTAVYYCAAYPYYDRDYWGQGTQVTVSS | low polyreactivity
9 | QVQLVESGGGLVQAGGSLRLSCAASGRIFSRYAMGLYRQAPGKERELVAAISWSGGSTYYADSVKGRFTISRDNAKNTVYLQMNSLNTEDTAVYYCAPPIKGSDSKYGYWGQCTQVTVSS | high polyreactivity
10 | QVQLVESGGGLVQAGGSLRLSCAASGRIFSRYAMGWYRQAPGKERELVAAISRSGGSTYYADSVKGRFTISRDNAKNTVYLQMNSLKPEDTAVYYCAARNVFSYPPGSYYYWGQGTQVTVSS | high polyreactivity
11 | QVQLVESGGGLVQAGGSLRLSCAASGRIFSRYAMGWYRQAPGKERELVAAISWSGGSTYYADSVKGRFTISRDNAKNTVYLQINSLKPEDTAVYYCAAKRQYTEYNYWGQGTQVTVSS | high polyreactivity
12 | QVQLVESGGGLVQAGGSLRLSCAASGRIFSRYAMGWYRQAPGKERELVAAITQSGTSTYYADSVKGRFTISRDNAKNTVYLQMNSLKPEDTAVYYCNAYRQYRYDYWGQGTQVTVSS | low polyreactivity
13 | QVQLVESGGGLVQAGGSLRLSCAASGRIFSRYAMGWYRQAPGKERELVATISSGGGTYYADSVKGRFTISRDNAKNTVYLQMNSLKPEDTAVYYCAAASYSGHGRYDDWGQGTQVPVSS | high polyreactivity
14 | QVQLVESGGGLVQAGGSLRLSCAASGRIFSRYAMGWYRQAPGKERELVATISSSRGGTSTNYADSVKGRFTISRDNAKNTVYLQMNSLKPEDTAVYYCNALYGRQIVDYDYWGQGTQVTVSS | low polyreactivity
15 | QVQLVESGGGLVQAGGSLRLSCAASGRIFSRYAMGWYRQAPGKERELVATITISGGSTYYADSVKGRFTISRDNAKNTVYLQMNSLKPEDTAVYYCAAETTASYYKRTDDYDYWGQGTQVTVSS | low polyreactivity
16 | QVQLVESGGGLVQAGGSLRLSCAASGRIFSRYAMGWYRQAPVKERELVADITYNGGSTYYADSVKGRFTISRDNAKHTVYLQMNSLQPDDTAVYYCNAVEVLDEGWGFWYYYWGQATQVTVSS | high polyreactivity

Row | Sequence | polyreactivity (PSR sort gate)
17 | QVQLVESGGGLVQAGGSLRLSCAASGRIFSRYTMVWYRQAPRKERELVAAISSSGGSTYYADSVKGRFTISRDNAKNTVYLQMNSLKQEDTAVYYCAARQYIGSPPHRRRFDYWGQGTQVTVSS | high polyreactivity
18 | QVQLVESGGGLVQAGGSLRLSCAASGRIFSSNAMGWYRQAPGKARELVAAISTSGSTKYADSVKGRFTSSRDNAKNTVYLLMNSLKPEDTAVYYCAAKGYEYRYRYDYWGQGTQVTVSW | high polyreactivity
19 | QVQLVESGGGLVQAGGSLRLSCAASGRIFSSYAMGWYRQAPGKERELVAAISSRGGSTYYADSVKGRFTISRDNAKNTVYLQMNSLKPEDTAVNYCAKGLTALGDYWGQCTQVTVSS | high polyreactivity
20 | QVQLVESGGGLVQAGGSLRLSCAASGRIFSSYAMGWYRQAPGKERELVASIDWSDGSTYYADSVKGRFTIARDNAKNTVYLQMTSLKPEDTAVYYCAADFVPYLIYGYWGQGTQVTVTS | low polyreactivity
21 | QVQLVESGGGLVQAGGSLRLSCAASGRIFSSYAMGWYRQEPGKERELVAVIRWSSGSTYYADSVKGRFTISRDNAKNTVYLQMNSLKPEDTAVYYCAALRRRSTKFEHDYWGQGTQVTVSS | high polyreactivity
22 | QVQLVESGGGLVQAGGSLRLSCAASGRIFSSYDMGWYRQAPGKERELDAAISSRTGITNYADSVKGRFTISRDNAKNTVYLQMNSLKPEDTAVYYCAKVGWYGYTRSYKYGYWGQGTQVTVSS | high polyreactivity
23 | QVQLVESGGGLVQAGGSLRLSCAASGRIFSTNAMGWYIQAPGKERELVAAISKNGGRTYYADSVKWRFTISRDNAKNTVYLQMNSLKPEDTAVYYCAAPVKPVTGYYPYDYWGQGTQVTVSS | high polyreactivity
24 | QVQLVESGGGLVQAGGSLRLSCAASGRIFSTNAMGWYRQAPGKERELVARINSGGGSTYADSVKGRFTISRDNAKNTVYLQMNSLKPEDTAVYYCAASRRFQWRAYGYWGQGTQVTVSS | high polyreactivity
25 | QVQLVESGGGLVQAGGSLRLSCAASGRIFSTNAMGWYRQAPGTERELVAAISRRGASTYYADSVKGRFTISRDNAKNTVYLQMNSLKPEDTAVYYCAAVIGTGGRYNYWGQGTQVTVSS | high polyreactivity
26 | QVQLVESGGGLVQAGGSLRLSCAASGRIFSTYVMGWYRQAPGKERELVAAITRGGSTNYADSVKGRFTISRDNAKNTVYLQMNSLKPEDTAVYYCNAQRRGTYYWGQATQVTVSS | high polyreactivity
27 | QVQLVESGGGLVQAGGSLRLSCAASGRIFSVYAMGWYRQAPGKEREFVAAITKGGVGTYYADSVKGRFTISRDHAKNSVYLQMNSLKPEDTAVYYFAARHYYGADRYYSWGQGTQVTVSS | high polyreactivity
28 | QVQLVESGGGLVQAGGSLRLSCAASGRIFSWYAMGWYRQAPGKERELVADITNGGSTYYADSVKGRFTISRDNAKNTVYLQMNSLKPEDTAVYYCAAAYIHRLGRVLPSVYSIGRDYWGQGTQVTVSS | low polyreactivity
29 | QVQLVESGGGLVQAGGSLRLSCAASGRIFSWYTMGWYRQAPGKERELVASITTGGRTYYADSLKGRFTNSRDNAKNTVYLQMNSLKPEDTAVYSCIVLSTLFGYYRWGDYWGQGTQVTVSS | high polyreactivity
30 | QVQLVESGGGLVQAGGSLRLSCAASGRIFSYMGWYRQAPGKERELVASISWSGGSTYYADSVKGRFTISRDNAKNTVYLQMNSLKPEDTAVYYCAAYLRSYVRYYYWGQGTQVTVSS | high polyreactivity
31 | QVQLVESGGGLVQAGGSLRLSCAASGRIFSYNAMGWYRQAPGKERELVAAISSDGSTYYADSVKGRFTISRDNAKNSVYLQMNSLKPEDTAVYYCAADTWRDGDDYWGQGTQVTVSS | low polyreactivity
32 | QVQLVESGGGLVQAGGSLRLSCAASGRIFSYNAMGWYRQAPGKERELVASISWSGGRTYYADSVKGRFTISRDNAKNTVYLQMNSLKPEDTAVYYCNAAYYTRVWGYDYWGQGTQVTVSS | high polyreactivity
